Test [1] concerns the target Mb(hPRDM14_S14) displayed on the yeast surface. Description: yeast surface display; monobodies on the yeast surface with 50 nM of hPRDM14 or a homologue.
For test [2] the target is unchanged. Description: yeast surface display; KD of monobody clones displayed on yeast for hPRDM14.
Test [3] deals with 12 clones that bound to human PRDM14 (monobodies; the members other than Mb(S4) and Mb(S14) are not given). The test is described as above.

B1: human PRDM14 (residues 238–487) (domain or fragment)
chain: LPQTLDKDSLQLPEGLCLMQTVFGEVPHFGVFCSSFIAKGVRFGPFQGKVVNASEVKTYGDNSVMWEIFEDGHLSHFIDGKGGTGNWMSYVNCARFPKEQNLVAVQCQGHIFYESCKEIHQNQELLVWYGDCYEKFLDIPVSLQVTEPGKQPSGPSEESAEGYRCERCGKVFTYKYYRDKHLKYTPCVDKGDRKFPCSLCKRSFEKRDRLRIHILHVHEKHRPHKCSTCGKCFSQSSSLNKHMRVHSGDR
modifications: biotin (biotin-acceptor tag)
Turning to B1, the fold stronger binding than hPRDM6 and hPRDM12 in test [1] is above 5 fold. Also, the Kd in test [2] and in test [3] was below 100 nM throughout.

The values above are taken from paper PMC4749557.
